In the FLAb antibody collection (doi:10.7554/elife.23156):

B1: scFv; the commonest letter at each place (parent)
chain 1: EVKLDETGGGLVQPGRPMKLSCVASGFTFSDYWMNWVRQSPEKGLEWVAQIRNKPYNYETYYSDSVKGRFTISRDDSKSSVYLQMNNLRVEDMGIYYCTGSYYGMDYWGQGTSVTVS
chain 2: DVVMTQTPLSLPVSLGDQASISCRSSQSLVHSNGNTYLRWYLQKPGQSPKVLIYKVSNRFSGVPDRFSGSGSGTDFTLKISRVEAEDLGVYFCSQSTHVPWTFGGGTKLEIK

Tests used:
fluorescein = variants of: B1; assay: Kd (Tite-Seq); conditions: with fluorescein; format: scFv 4-4-20, heavy + light
[1] = variants of: B1; assay: yeast surface expression (ratio to wild type); higher = more expressed; conditions: format: scFv 4-4-20, heavy + light

Kd (fluorescein) | Variant | yeast surface expression [1]
0.000389 µM | chain 1 EVKLDETGGGLVQPGRPMKLSCVASGFTFSDYWMNWVRQSPEKGLEWVAQIRNKPYNYETYYSDSVKGRFTISRDDSKSSVYLQMNNLRVEDMGIYYCTGSYYGCDYMGQGTSVTVS chain 2 DVVMTQTPLSLPVSLGDQASISCRSSQSLVHSNGNTYLRWYLQKPGQSPKVLIYKVSNRFSGVPDRFSGSGSGTDFTLKISRVEAEDLGVYFCSQSTHVPWTFGGGTKLEIK [chain 1 M105C W108M] | 0.656
≥ 10 µM | chain 1 EVKLDETGGGLVQPGRPMKLSCVASGFTFSDYWMNWVRQSPEKGLEWVAQIRNKPYNYETYYSDSVKGRFTISRDDSKSSVYLQMNNLRVEDMGIYYCTGSYYGCDYWVQGTSVTVS chain 2 DVVMTQTPLSLPVSLGDQASISCRSSQSLVHSNGNTYLRWYLQKPGQSPKVLIYKVSNRFSGVPDRFSGSGSGTDFTLKISRVEAEDLGVYFCSQSTHVPWTFGGGTKLEIK [chain 1 M105C G109V] | 0.171

Further lines, the variant ahead of its results:

Variant | Kd (fluorescein) | yeast surface expression [1]
chain 1 EVKLDETGGGLVQPGRPMKLSCVASGFTFSDYWMNWVRQSPEKGLEWVAQIRNKPYNYETYYSDSVKGRFTISRDDSKSSVYLQMNNLRVEDMGIYYCTGSYYGADMWGQGTSVTVS chain 2 DVVMTQTPLSLPVSLGDQASISCRSSQSLVHSNGNTYLRWYLQKPGQSPKVLIYKVSNRFSGVPDRFSGSGSGTDFTLKISRVEAEDLGVYFCSQSTHVPWTFGGGTKLEIK [chain 1 M105A Y107M] | ≥ 10 µM | 0.661
chain 1 EVKLDETGGGLVQPGRPMKLSCVASGFTFSDYWMNWVRQSPEKGLEWVAQIRNKPYNYETYYSDSVKGRFTISRDDSKSSVYLQMNNLRVEDMGIYYCTGSYYGCDYWGQGTSVTVS chain 2 DVVMTQTPLSLPVSLGDQASISCRSSQSLVHSNGNTYLRWYLQKPGQSPKVLIYKVSNRFSGVPDRFSGSGSGTDFTLKISRVEAEDLGVYFCSQSTHVPWTFGGGTKLEIK [chain 1 M105C] | 4.48 µM | 0.861
chain 1 EVKLDETGGGLVQPGRPMKLSCVASGFTFSDYWMNWVRQSPEKGLEWVAQIRNKPYNYETYYSDSVKGRFTISRDDSKSSVYLQMNNLRVEDMGIYYCTGSYYGCSYWGQGTSVTVS chain 2 DVVMTQTPLSLPVSLGDQASISCRSSQSLVHSNGNTYLRWYLQKPGQSPKVLIYKVSNRFSGVPDRFSGSGSGTDFTLKISRVEAEDLGVYFCSQSTHVPWTFGGGTKLEIK [chain 1 M105C D106S] | 3.37 µM | 0.728
chain 1 EVKLDETGGGLVQPGRPMKLSCVASGFTFSDYWMNWVRQSPEKGLEWVAQIRNKPYNYETYYSDSVKGRFTISRDDSKSSVYLQMNNLRVEDMGIYYCTGSYYGCEYWGQGTSVTVS chain 2 DVVMTQTPLSLPVSLGDQASISCRSSQSLVHSNGNTYLRWYLQKPGQSPKVLIYKVSNRFSGVPDRFSGSGSGTDFTLKISRVEAEDLGVYFCSQSTHVPWTFGGGTKLEIK [chain 1 M105C D106E] | ≥ 10 µM | 0.902
